Target: T1, HLA-A*02:01 (human)
T1 construct: the tested peptide takes its place; also called peptide-receptive MHC molecules; MHC class I
Test: UV-ligand exchange, anti-β2m ELISA; grade of peptide exchange yield
From the text: Candidate peptides for T cell based therapies according to the present invention were further tested for their MHC binding capacity (affinity). The individual peptide-MHC complexes were produced by UV-ligand exchange, where a UV-sensitive peptide is cleaved upon UV-irradiation, and exchanged with the peptide of interest as analyzed. Only peptide candidates that can effectively bind and stabilize the peptide-receptive MHC molecules prevent dissociation of the MHC complexes. To determine the yield of the exchange reaction, an ELISA was performed based on the detection of the light chain (β2m) of stabilized MHC complexes. The assay was performed as generally described in Rodenko et al. (Rodenko et al., 2006).
96 well MAXISorp plates (NUNC) were coated over night with 2 ug/ml streptavidin in PBS at room temperature, washed 4× and blocked for 1h at 37° C. in 2% BSA containing blocking buffer. Refolded HLA-A*02:01/MLA-001 monomers served as standards, covering the range of 15-500 ng/ml. Peptide-MHC monomers of the UV-exchange reaction were diluted 100 fold in blocking buffer. Samples were incubated for 1 h at 37° C., washed four times, incubated with 2 ug/ml HRP conjugated anti-β2m for 1h at 37° C., washed again and detected with TMB solution that is stopped with […]. Absorption was measured at 450 nm. Candidate peptides that show a high exchange yield (preferably higher than 50%, most preferred higher than 75%) are generally preferred for a generation and production of antibodies or fragments thereof, and/or T cell receptors or fragments thereof, as they show sufficient avidity to the MHC molecules and prevent dissociation of the MHC complexes.

Binder	peptide exchange yield
FILANEHNV [FILANEHNV (SEQ ID NO: 15)]	50 to 75%
KLDDTYIKA [KLDDTYIKA (SEQ ID NO: 135)]	50 to 75%
SIDRNPPQL [SIDRNPPQL (SEQ ID NO: 139)]	50 to 75%
KISTITPQI [KISTITPQI (SEQ ID NO: 123)]	20 to 50%
SLFPHNPQFI [SLFPHNPQFI (SEQ ID NO: 114)]	50 to 75%
SLMDPNKFLLL [SLMDPNKFLLL (SEQ ID NO: 115)]	50 to 75%
FIIDNPQDLKV [FIIDNPQDLKV (SEQ ID NO: 14)]	50 to 75%
ILLTGTPAL [ILLTGTPAL (SEQ ID NO: 110)]	50 to 75%
SVDGVIKEV [SVDGVIKEV (SEQ ID NO: 117)]	50 to 75%
ALPKEDPTAV [ALPKEDPTAV (SEQ ID NO: 153)]	50 to 75%
SMMDPNHFL [SMMDPNHFL (SEQ ID NO: 116)]	≥ 75%
FVYGGPQVQL [FVYGGPQVQL (SEQ ID NO: 107)]	50 to 75%
ALLDIIRSL [ALLDIIRSL (SEQ ID NO: 151)]	≥ 75%
GLIDIENPNRV [GLIDIENPNRV (SEQ ID NO: 20)]	50 to 75%
FVWSGTAEA [FVWSGTAEA (SEQ ID NO: 106)]	50 to 75%
FLQPDLDSL [FLQPDLDSL (SEQ ID NO: 104)]	50 to 75%
SLIEKYFSV [SLIEKYFSV (SEQ ID NO: 158)]	≥ 75%
MLLEIPYMAA [MLLEIPYMAA (SEQ ID NO: 157)]	50 to 75%
LLLAAARLAAA [LLLAAARLAAA (SEQ ID NO: 111)]	50 to 75%
ALYYNPHLL [ALYYNPHLL (SEQ ID NO: 11)]	20 to 50%
ALYEKDNTYL [ALYEKDNTYL (SEQ ID NO: 129)]	50 to 75%
GLIDYDTGI [GLIDYDTGI (SEQ ID NO: 16)]	50 to 75%
ILASVILNV [ILASVILNV (SEQ ID NO: 109)]	≥ 75%

Binder	peptide exchange yield
ALFQPHLINV [ALFQPHLINV (SEQ ID NO: 150)]	≥ 75%
FLFGEEPSKL [FLFGEEPSKL (SEQ ID NO: 130)]	50 to 75%
AQYKFVYQV [AQYKFVYQV (SEQ ID NO: 12)]	50 to 75%
SLYGYLRGA [SLYGYLRGA (SEQ ID NO: 142)]	50 to 75%
SLLNPPETLNL [SLLNPPETLNL (SEQ ID NO: 140)]	50 to 75%
LLLPPPPCPA [LLLPPPPCPA (SEQ ID NO: 156)]	50 to 75%
ALLSLDPAAV [ALLSLDPAAV (SEQ ID NO: 126)]	≥ 75%
ALLGKLDAINV [ALLGKLDAINV (SEQ ID NO: 125)]	50 to 75%
LMMSEDRISL [LMMSEDRISL (SEQ ID NO: 113)]	50 to 75%
ILLAEGRLVNL [ILLAEGRLVNL (SEQ ID NO: 134)]	50 to 75%
FIDSSNPGL [FIDSSNPGL (SEQ ID NO: 13)]	20 to 50%
VLISGVVHEI [VLISGVVHEI (SEQ ID NO: 146)]	50 to 75%
ILDDVSLTHL [ILDDVSLTHL (SEQ ID NO: 133)]	20 to 50%
KVADLVLML [KVADLVLML (SEQ ID NO: 154)]	50 to 75%
ALWHDAENQTVV [ALWHDAENQTVV (SEQ ID NO: 19)]	50 to 75%
ALLEPEFILKA [ALLEPEFILKA (SEQ ID NO: 152)]	≥ 75%
VLLDKIKNL [VLLDKIKNL (SEQ ID NO: 10)]	20 to 50%
LLLDPDTAVLKL [LLLDPDTAVLKL (SEQ ID NO: 155)]	50 to 75%
FVDTRTLL [FVDTRTLL (SEQ ID NO: 1)]	20 to 50%
YLPDIIKDQKA [YLPDIIKDQKA (SEQ ID NO: 161)]	50 to 75%
TLWYRPPEL [TLWYRPPEL (SEQ ID NO: 118)]	50 to 75%
VLGDDPQLMKV [VLGDDPQLMKV (SEQ ID NO: 119)]	50 to 75%
MQAPRAALVFA [MQAPRAALVFA (SEQ ID NO: 122)]	≥ 75%

Binder	peptide exchange yield
YLDEDTIYHL [YLDEDTIYHL (SEQ ID NO: 121)]	20 to 50%
KLFPGFEIETV [KLFPGFEIETV (SEQ ID NO: 136)]	≥ 75%
GLIDYDTGIRL [GLIDYDTGIRL (SEQ ID NO: 17)]	50 to 75%
YLHNQGIGV [YLHNQGIGV (SEQ ID NO: 148)]	20 to 50%
TAVALLRLL [TAVALLRLL (SEQ ID NO: 144)]	20 to 50%
ALYDVRTILL [ALYDVRTILL (SEQ ID NO: 128)]	50 to 75%
KLGPEGELL [KLGPEGELL (SEQ ID NO: 137)]	50 to 75%
TTFPRPVTV [TTFPRPVTV (SEQ ID NO: 145)]	50 to 75%
VLLPDERTISL [VLLPDERTISL (SEQ ID NO: 160)]	≥ 75%
FLWAGGRASYGV [FLWAGGRASYGV (SEQ ID NO: 132)]	50 to 75%
ALFVRLLAL [ALFVRLLAL (SEQ ID NO: 18)]	20 to 50%
YAFPKAVSV [YAFPKAVSV (SEQ ID NO: 147)]	20 to 50%
LLSDVRFVL [LLSDVRFVL (SEQ ID NO: 112)]	50 to 75%
FGYDGDFYRA [FGYDGDFYRA (SEQ ID NO: 2)]	50 to 75%
NIFPNPEATFV [NIFPNPEATFV (SEQ ID NO: 138)]	50 to 75%
ALFEESGLIRI [ALFEESGLIRI (SEQ ID NO: 124)]	50 to 75%
FLIEEQKIVV [FLIEEQKIVV (SEQ ID NO: 131)]	50 to 75%
FLSEVFHQA [FLSEVFHQA (SEQ ID NO: 105)]	50 to 75%
ILGTEDLIVEV [ILGTEDLIVEV (SEQ ID NO: 149)]	50 to 75%
ALSDLALHFL [ALSDLALHFL (SEQ ID NO: 127)]	≥ 75%
SLLDLHTKV [SLLDLHTKV (SEQ ID NO: 159)]	50 to 75%

From US20160368965A1 (IMMATICS BIOTECHNOLOGIES, published 2016)
